Molecular target: Spike glycoprotein on SARS-COV-2 viral particles (Italian Variant, Genbank MT682732.1, GISAID EPI_ISL_477204) (SARS-COV-2, UniProt P0DTC2 14-1273)
Experiment: cell-based or functional assay

B1: D3 mAb (fully human IgG4 anti-Spike RBD antibody) (antibody, V domains shown)
VH: QVQLVQSGAEVKKPGATVKISCKVSGYTFTDYYMHWVQQAPGKGLEWMGLVDPEDGETIYAEKFQGRVTITADTSTDTAYMELSSLRSEDTAVYYCARGAKATLGLWGQGTLVTVSR
VL: ELTQDPAVSVALGQTVRITCQGDSLRSYYASWYQQKPGQAPVLVIYGKNNRPSGIPDRFSGSSSGNTASLTITGAQAEDEADYYCNSRDSSGNHVVFGGGTKLTVL
- IC50 of inhibition of viral infectivity (VERO E6 cells, 0.5 MOI): 15 µg/mL

Source: patent US20240166727A1 (CEINGE BIOTECNOLOGIE AVANZATE SCARL, published 2024)
